Assay results as given in patent publication US20200109188A1 (AstraZeneca / MedImmune, published 2020).
Changes are numbered by the printed parent chain.

B1: Antibody 11 (antibody, V domains shown)
VH: QVQLQQSGPGLVKPSQTLSLTCAISGDSVSSYNAVWNWIRQSPSRGLEWLGRTYYRSGWYNDYAESVKSRITINPDTSKNQFSLQLNSVTPEDTAVYYCARSGHITVFGVNVDAFDMWGQGTMVTVSS
VL: DIQMTQSPSSLSASVGDRVTITCRTSQSLSSYTHWYQQKPGKAPKLLIYAASSRLSGVPSRFSGSGSGTDFTLTISSLQPEDFATYYCQQSRTFGQGTKVEIK
B2: Antibody 14 (antibody, V domains shown)
VH: B1 VH with Y32N, G58K, M123T
VL: B1 VL
B3: Antibody 13 (antibody, V domains shown)
VH: B1 VH
VL: B1 VL with T33D
B4: Antibody 15 (antibody, V domains shown)
VH: B1 VH with Y32N, G58K, M123T
VL: B1 VL with L55G
B5: Antibody 12 (antibody, V domains shown)
VH: B1 VH
VL: B1 VL with L55G

What follows are binders tested against HA of A/New Jersey/8/76 (H1N1) virus (influenza A virus) (assay: cell-based or functional assay).

In order of falling “Neutralization IC50, H1-NJ76” value:
1. B4  0.25 µg/mL
2. B1  0.13 µg/mL
3. B3  0.12 µg/mL
4. B5  0.12 µg/mL
5. B2  0.11 µg/mL

These binders were tested against HA of ca A/Japan/57 (H2N2) virus (influenza A virus) (assay: cell-based or functional assay).

In order of falling “Neutralization IC50, H2-JP57” value:
1. B2  0.67 µg/mL
2. B3  0.47 µg/mL
3. B5  0.35 µg/mL
4. B4  0.33 µg/mL
5. B1  0.31 µg/mL

The binders below were run against HA of ca A/swine/Missouri/06 (H2N3) virus (influenza A virus) (assay: cell-based or functional assay).

In order of rising “Neutralization IC50, H2-MO06” value:
1. B5  0.53 µg/mL
2. B3  0.57 µg/mL
3. B1  0.6 µg/mL
4. B2  0.65 µg/mL
5. B4  0.83 µg/mL

What follows are binders tested against HA of ca A/Vietnam/1203/04 (H5N1) virus (influenza A virus) (assay: cell-based or functional assay).

In order of falling “Neutralization IC50, H5-VM04” value:
1. B1  0.57 µg/mL
2. B3  0.56 µg/mL
3. B2  0.33 µg/mL
4. B5  0.31 µg/mL
5. B4  0.28 µg/mL

What follows are binders tested against HA of ca A/Hong Kong/213/03 (H5N1) virus (influenza A virus) (assay: cell-based or functional assay).

In order of rising “Neutralization IC50, H5-HK03” value:
1. B4  0.05 µg/mL
2. B3  0.17 µg/mL
3. B5  0.17 µg/mL
4. B1  0.21 µg/mL
5. B2  0.21 µg/mL

Each binder was assayed against HA of ca A/mallard/Alberta/89/85 (H6N2) virus (influenza A virus) (assay: cell-based or functional assay).

In order of falling “Neutralization IC50, H6-AB85” value:
1. B5  0.32 µg/mL
2. B3  0.29 µg/mL
3. B2  0.26 µg/mL
4. B1  0.24 µg/mL
5. B4  0.19 µg/mL

The binders below were run against HA of ca A/teal/Hong Kong/W312/97 (H6N1) virus (influenza A virus) (assay: cell-based or functional assay).

In order of rising “Neutralization IC50, H6-HK97” value:
1. B2  0.26 µg/mL
2. B4  0.33 µg/mL
3. B1  0.4 µg/mL
4. B5  0.45 µg/mL
5. B3  0.55 µg/mL

What follows are binders tested against HA of ca A/chicken/Hong Kong/G9/97 (H9N2) virus (influenza A virus) (assay: cell-based or functional assay).

In order of rising “Neutralization IC50, H9-HK97” value:
1. B3  0.29 µg/mL
2. B5  0.31 µg/mL
3. B4  0.35 µg/mL
4. B1  0.36 µg/mL
5. B2  0.44 µg/mL

Each binder was assayed against HA of ca A/Netherlands/219/03 (H7N7) virus (influenza A virus) (assay: cell-based or functional assay).

In order of rising “Neutralization IC50, H7-NLD03” value:
1. B5  0.83 µg/mL
2. B1  0.94 µg/mL
3. B2  1.16 µg/mL
4. B4  1.3 µg/mL
5. B3  2.45 µg/mL

Each binder was assayed against HA of ca A/Brit. Columbia/CN-6/04 (H7N3-LP) virus (influenza A virus) (assay: cell-based or functional assay).

In order of rising “Neutralization IC50, H7-BC04” value:
1. B1  0.71 µg/mL
2. B5  0.78 µg/mL
3. B2  0.86 µg/mL
4. B3  0.96 µg/mL
5. B4  1.25 µg/mL

What follows are binders tested against HA of ca A/Anhui/1/13 (H7N9) virus (influenza A virus) (assay: cell-based or functional assay).

In order of rising “Neutralization IC50, H7-ANU13” value:
1. B2  2.12 µg/mL
2. B5  2.56 µg/mL

Each binder was assayed against HA subtype H4 (A/duck/Czechoslovakia/56 (H4N6)) on HEK cells (influenza A virus, UniProt P19696 17-564) (assay: flow cytometry, HA-transfected HEK cells, 5 ug/ml antibody).

B5: binds.

The binders below were run against HA subtype H10 (A/chicken/Germany/N49 (H10N7)) on HEK cells (influenza A virus, UniProt P12581 17-561) in the same assay as above.

B5: binds.

The binders below were run against HA subtype H12 (A/duck/Alberta/60/76 (H12N5)) on HEK cells (influenza A virus, UniProt P03446 17-564) in the same assay as above.

B5: binds.

These binders were tested against HA subtype H13 (A/gull/Maryland/704/77 (H13N6)) on HEK cells (influenza A virus, UniProt P13103 19-566) in the same assay as above.

B5: binds.

The binders below were run against HA subtype H14 (A/mallard/Astrakhan/263/82 (H14N5)) on HEK cells (influenza A virus, UniProt P26136 18-568) in the same assay as above.

B5: binds.
